# Numbered stars: 1 amine (or outer) side, 2 acyl side, 3 side chain; on linkers, the order of the positions; unused ones are H or OH. Bridge positions count the residues as written; N and C are the ends. Side chains are listed from the residue outwards. Peptide text beside a SMILES is read from it. * marks the point of attachment. X1 = C/C(=N\O)C(C)(C)NCCC(CCNC(C)(C)/C(C)=N/O)CCN*; Glutaryl = O=C(CCCC(=O)[*:2])[*:1]; X2 = NC(=O)COCC(=O)NCCOCCOCCOCCN*
# Experiments:
# [1] = system: healthy volunteers; design: species or system human; conditions: in vivo
# Experimental: The mean absorbed doses per unit injected activity to 24 target organs were evaluated from this matrix of normalised cumulated activity values, using the MIRD schema, for a 70-kg adult human. The cumulated activity in the urinary bladder contents and voided urine was calculated using a dynamic urinary bladder model for a 3.5-h voiding interval. Cumulative activities in the GI tract were calculated using a dynamic model that assumed that activity enters the GI tract solely through hepatobiliary drainage. […] At later times, it was possible to identify the ^99mTc associated with the GI tract as predominantly that in the luminal contents. The overall time course of ^99mTc activity in a ROI set over the GI tract was typically that of an initial rapid decrease which then slowed to approach the amount present in the luminal contents. This observation was considered to be due to an initial rapid uptake and subsequent tissue clearance of ^99mTc from the GI tract walls combined with the slow introduction of ^99mTc into the GI contents via hepatobiliary transport. The activity in the luminal contents was isolated by first modelling the GI tract wall tissue clearance by the renormalised time course of activity measured in a ROI set over a region of soft tissue (the quadriceps femoris in one leg). […] The ED per unit injected activity was subsequently calculated from the ensemble of organ-absorbed dose values.
# The effective dose (ED) was calculated from the ensemble of organ-absorbed dose values at 7.8 ± 0.8 μSv/MBq.
# [2] = system: αvβ5 integrins; conditions: background statement, no reference printed; cited from earlier work
# Excerpt: As such, it holds promise as a novel diagnostic imaging agent for a range of pathological conditions. […] Methods A phase 1, randomised, placebo-controlled study assessed the safety, biodistribution and radiation dosimetry of ^99mTc-maraciclatide in healt ...
# [3] = system: healthy volunteers; assay: clinical; design: species or system human; conditions: in vivo
# Experimental: (§1) To calculate ^99mTc-maraciclatide ex-vivo activity, blood, plasma, urine, and faeces were collected at various time points after administration. Blood and plasma samples were collected at 10 min, 30 min, 1 h, 2 h, 4 h, 8 h, 24 h, 48 h, 72 h, and 7 days post-administration. Concentrations of maraciclatide in plasma were assayed using the LC-MS method (LOQ was 0.5 ng/ml). Urine was also collected at the same time points (if possible) up to 24 h post-administration. Faecal samples were collected as voided for up to 24 h post-administration. Assayed samples for ^99mTc-maraciclatide content were then measured using a gamma counter.
# Concentrations of maraciclatide in plasma were assayed using the LC-MS method (LOQ was 0.5 ng/ml). The mean apparent terminal elimination half-life was approximately 1 h. Overall, systemic clearance was approximately 6.7 ml/min/kg, whilst the mean apparent volume of distribution was approximately 520 ml/kg. The majority of ^99mTc activity was excreted through the urinary pathway and GI tract, 55% and 16%, respectively.
# [4] = system: integrin receptor αvβ3; conditions: background statement, no reference printed; listed as 99mTc-Maraciclatide; cited from earlier work
# [5] = clinical; design: species or system human; conditions: human, in vivo, iv, total radioactivity
# Experimental: (§2) On the day of administration before the administration of ^99mTc-maraciclatide, a transmission scan was obtained. The counts acquired from a flood or line source with and without the participant on the imaging couch were utilised to calculate body attenuation. Following intravenous administration of ^99mTc-maraciclatide, whole-body gamma scintigraphy was performed at 5 min post-administration up to 24 h as described below (section 2.6). Additional anterior and posterior planar images of the chest (45 min and 1 h 45 min, post-administration) and the pelvis (1 h 15 min and 2 h post-administration) were obtained for each participant.
# (§3) Regions of interest (ROIs) were selected from organs and tissues on the whole-body scintigraphic images showing significant activity uptake. ^99mTc activity in ROIs was calculated using the methodology described in Medical Internal Radiation Dose (MIRD) Pamphlet No. 16 [15].
# as §1
# (§4) The biodistribution of ^99mTc was determined by whole-body conjugate view imaging in conjunction with extracorporeal activity measurements in whole blood, plasma, voided urine, and faeces, as described above. Simultaneous anterior and posterior whole-body images were acquired beginning nominally at 5 min, 15 min, 30 min, 60 min, 90 min, 3 h, 6 h and 12 h post-administration. A final anterior and posterior image pair was acquired at a ninth time-point between 21 and 24 h post-administration. Quantitative analysis of the incorporated data at multiple time points yielded biodistribution data consisting of activity in 10 specified organs or tissues [brain, salivary glands, thyroid gland, lungs, heart, spleen, liver, gallbladder, gastrointestinal (GI) tract and urinary bladder]. The remaining ^99mTc activity in other tissues was grouped within a ‘remaining tissues’ category. For each organ or tissue of interest, the ^99mTc activity was decay-corrected to the administration time and normalised to the injected activity. The temporal variation of this normalised and decay-corrected activity was then fit by one of several analytical functions, which was then integrated to yield the cumulated activity for that organ normalised to the injected activity.
# [6] = system: healthy volunteers; assay: clinical; design: species or system human; conditions: in vivo; remark: listed apart in the source
# Experimental: as §2, §3, §1, §4
# [7] = system: healthy volunteers; assay: Phase 1 safety assessment (adverse events, vital signs, ECG, laboratory parameters)
# Experimental: In 2003, a phase 1, placebo-controlled, observer-blinded, randomised, single ascending-dose study was performed. The study aimed to assess the safety of three intravenous levels of maraciclatide and the biodistribution and radiation dosimetry of ^99mTc-maraciclatide in healthy volunteers, assessing the potential of ^99mTc-maraciclatide as a radiopharmaceutical for diagnostic imaging.
# Safety data on vital signs (heart rate, blood pressure, temperature, and oxygen saturation), electrocardiograms (ECG), laboratory parameters and physical examinations (general appearance, lung, abdominal, cardiovascular, and neurological exam by a qualified clinician) were measured prior to administration, and at multiple time points up to 7 days following administration. Based on clinical assessment, new abnormal or worsening clinical findings were defined as a change from the participant’s normal baseline to abnormal. All abnormal changes were recorded as adverse events (AEs).
# Safety assessments were performed by an observer blinded to the administration of the placebo and ^99mTc-maraciclatide. A thorough review of safety data was performed before the decision was made to escalate to the higher dose in participants.
compound,measurement,setting,value
"C/C(=N\O)C(C)(C)NCCC(CCNC(=O)CCCC(=O)NCCCC[C@@H]1NC(=O)CSC[C@@H](C(=O)NCCOCCOCCOCCNC(=O)COCC(N)=O)NC(=O)[C@H](Cc2ccccc2)NC(=O)[C@@H]2CSSC[C@H](NC1=O)C(=O)N[C@@H](CCCNC(=N)N)C(=O)NCC(=O)N[C@@H](CC(=O)O)C(=O)N2)CCNC(C)(C)/C(C)=N/O (some centres unmarked) [^99mTc-maraciclatide, metal not drawn] ({CH2CO}-K([Glutaryl-X1])CRGDCFC-X2; disulfide 2-6; thioether N-8; N-terminus and C-terminus assumed)",mean effective dose (ED) per unit injected activity,[1],7.8 μSv/MBq
same,"Absorbed dose per unit administered activity, Adrenal glands",[1]; iv,4.7 μGy/MBq
same,"Absorbed dose per unit administered activity, Bone surfaces",[1]; iv,4.5 μGy/MBq
same,"Absorbed dose per unit administered activity, Brain",[1]; iv,1.3 μGy/MBq
same,"Absorbed dose per unit administered activity, Breasts",[1]; iv,1.8 μGy/MBq
same,"Absorbed dose per unit administered activity, Gallbladder wall",[1]; iv,8.7 μGy/MBq
same,"Absorbed dose per unit administered activity, Heart wall",[1]; iv,6.1 μGy/MBq
same,"Absorbed dose per unit administered activity, Kidneys",[1]; iv,16.5 μGy/MBq
same,"Absorbed dose per unit administered activity, Liver",[1]; iv,11.1 μGy/MBq
same,"Absorbed dose per unit administered activity, Lower large intestine wall",[1]; iv,11.7 μGy/MBq
same,"Absorbed dose per unit administered activity, Lungs",[1]; iv,7.3 μGy/MBq
same,"Absorbed dose per unit administered activity, Muscle",[1]; iv,2.8 μGy/MBq
same,"Absorbed dose per unit administered activity, Ovaries",[1]; iv,6.3 μGy/MBq
same,"Absorbed dose per unit administered activity, Pancreas",[1]; iv,5.0 μGy/MBq
same,"Absorbed dose per unit administered activity, Red marrow",[1]; iv,3.0 μGy/MBq
same,"Absorbed dose per unit administered activity, Skin",[1]; iv,1.5 μGy/MBq
same,"Absorbed dose per unit administered activity, Small intestine wall",[1]; iv,8.9 μGy/MBq
same,"Absorbed dose per unit administered activity, Spleen",[1]; iv,16.1 μGy/MBq
same,"Absorbed dose per unit administered activity, Stomach",[1]; iv,3.8 μGy/MBq
same,"Absorbed dose per unit administered activity, Testes",[1]; iv,2.8 μGy/MBq
same,"Absorbed dose per unit administered activity, Thymus gland",[1]; iv,2.5 μGy/MBq
same,"Absorbed dose per unit administered activity, Thyroid gland",[1]; iv,4.9 μGy/MBq
same,"Absorbed dose per unit administered activity, Upper large intestine wall",[1]; iv,14.7 μGy/MBq
same,"Absorbed dose per unit administered activity, Urinary bladder wall",[1]; iv,36.2 μGy/MBq
same,"Absorbed dose per unit administered activity, Uterus",[1]; iv,7.5 μGy/MBq
same,affinity to αvβ5,[2],high affinity
same,systemic urinary clearance,[3],approximately 6.7 ml/min/kg
same,affinity to αvβ3,[4],high affinity
same,dose excreted,[5]; 99mTc activity excreted through the GI tract,16%
same,dose excreted,[5]; 99mTc activity excreted through the urinary pathway,55%
same,"normalised cumulated activity, combined walls of the small intestine and upper and lower large intestine",[6],0.9 ± 0.2 MBq*h/MBq
same,"normalised cumulated activity, contents of the upper large intestine",[6],0.3 ± 0.1 MBq*h/MBq
same,"normalised cumulated activity, liver",[6],0.8 ± 0.2 MBq*h/MBq
same,"normalised cumulated activity, lung",[6],0.4 ± 0.1 MBq*h/MBq
same,uptake in the red bone marrow,[6],too low to be quantified
same,number of non-serious AEs,[7]; 24 participants receiving protocol-stipulated dose,31
same,deaths,"[7]; all dose groups, single i.v.",no deaths
same,intensity of related AEs,[7]; in vivo,mild intensity
same,"laboratory, ECG and vital signs parameters",[7]; in vivo,no clinically important safety trends
same,participants experiencing non-serious AEs (number),[7]; in vivo,17
same,participants experiencing non-serious AEs (percent),[7]; in vivo,71%
same,participants with AEs attributed to the agent,[7]; in vivo,6
same,participants with AEs that required medical treatment (number),[7]; in vivo,3
same,participants with AEs that required medical treatment (percent),[7]; in vivo,13%
same,participants with reduction in red blood cell count (number),[7]; in vivo,4
same,participants with reduction in red blood cell count (percent),[7]; in vivo,17%
same,time to resolution of related AEs,[7]; in vivo,≤ 25 h

# Source: article PMC10916747, “Safety, biodistribution and radiation dosimetry of the Arg-Gly-Asp peptide ^99mTc-maraciclatide in healthy volunteers” (Nuclear Medicine Communications, 2024)
